According to article PMC8285372, “Biochemical and functional characterization of mutant KRAS epitopes validates this oncoprotein for immunological targeting” (Nature Communications, 2021):

What was measured:
Assay in all cases: fluorescence polarisation
[1] = target: soluble HLA-A*11:01 class I molecule (fluorescence polarization assay)
[2] = target: soluble HLA-A*03:01 class I molecule (fluorescence polarization assay)
[3] = target: soluble HLA-A*02:01 class I molecule (fluorescence polarization assay)
[4] = target: soluble HLA-B*07:02 class I molecule (fluorescence polarization assay)

IC50 [1] [µM]	IC50 [2] [µM]	IC50 [3] [µM]	IC50 [4] [µM]	Binder
0.225	0.962			ALLAVGATK [gp17-25 peptide, Melanocyte protein PMEL]
		10.9		KLVVVGAGGV [KRAS 5-14 wild-type peptide]
0.634	5.3			VVGARGVGK [KRAS G12R 8-16 peptide]
		20.7		KLVVVGARGV [KRAS G12R 5-14 peptide]
0.566	3.24			VVVGARGVGK [KRAS G12R 7-16 peptide]
			76.9	GAGGVGKSAL [KRAS 10-19 wild-type peptide]
